In patent US20080171347A1 one finds percent inhibition (maximum) data, which are given here for 1 substance.

The assay deals with mouse synaptosomes (synaptosome preparation carrying the BoNT/A acceptor complex).

As to “inactivated BoNT/A (toxoid) (from UniProt P0DPI1 2-1296)”, the percent inhibition (maximum) stood at 98%.
